Laboratory results from paper PMC11299580, “Discovery of novel disease-causing mutation in SSBP1 and its correction using adenine base editor to improve mitochondrial function” (Molecular Therapy. Nucleic Acids, 2023).

Target: T1, SSBP1 Arg91Gln R91Q (Homo sapiens) (UniProt Q04837)
T1 sequence: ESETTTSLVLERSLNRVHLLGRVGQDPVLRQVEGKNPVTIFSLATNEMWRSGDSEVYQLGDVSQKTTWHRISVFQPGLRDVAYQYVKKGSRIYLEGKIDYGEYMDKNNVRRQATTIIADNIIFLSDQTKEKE
Assay: EMSA
Details: 50 mM Tris pH 7.5, 150 mM NaCl, 10% glycerol, 30 min at room temperature; 2% agarose gel in 1x TBE

## GGACTATTTATTCAATATATTTAAGAACTAATTCCAGCTGAGCGCCGG [EMSA ssDNA probe]
  Kd: 0.0202 µM
